# In patent US6365158:
# Assays:
# [1] = target: Crotalus durissus terrificus (C.d.t.) venom; test: ELISA, C.d.t. venom-coated wells, 1:5
# [2] = target: Crotalus durissus terrificus (C.d.t.) venom; test: ELISA, C.d.t. venom-coated wells, 1:25
# [3] = target: Crotalus durissus terrificus (C.d.t.) venom; test: ELISA, C.d.t. venom-coated wells, 1:125
# [4] = target: Crotalus durissus terrificus (C.d.t.) venom; test: ELISA, C.d.t. venom-coated wells, 1:625
# [5] = target: Crotalus durissus terrificus (C.d.t.) venom; test: ELISA, C.d.t. venom-coated wells, 1:3125
# [6] = target: Crotalus durissus terrificus (C.d.t.) venom; test: ELISA, C.d.t. venom-coated wells, IgY 1:62,500
# [7] = target: Crotalus durissus terrificus (C.d.t.) venom; test: ELISA, C.d.t. venom-coated wells, IgY 1:312,500
# [8] = target: Crotalus durissus terrificus (C.d.t.) venom; test: ELISA, wells coated with 5 µg/ml C.d.t. venom, 1:5
# [9] = target: Crotalus durissus terrificus (C.d.t.) venom; test: ELISA, wells coated with 5 µg/ml C.d.t. venom, 1:25
# [10] = target: Crotalus durissus terrificus (C.d.t.) venom; test: ELISA, wells coated with 5 µg/ml C.d.t. venom, 1:125
# [11] = target: Crotalus durissus terrificus (C.d.t.) venom; test: ELISA, wells coated with 5 µg/ml C.d.t. venom, 1:625
# [12] = target: Crotalus durissus terrificus (C.d.t.) venom; test: ELISA, wells coated with 5 µg/ml C.d.t. venom, 1:3125
# [13] = target: Crotalus durissus terrificus (C.d.t.) venom; test: ELISA, wells coated with 5 µg/ml C.d.t. venom, undiluted
substance,measurement,setting,value
preimmune IgY (antibody),absorbance (ELISA) (absorbance at 412 nm),[1],< 0
same,absorbance (ELISA) (absorbance at 412 nm),[2],0.016
same,absorbance (ELISA) (absorbance at 412 nm),[3],< 0
same,absorbance (ELISA) (absorbance at 412 nm),[4],< 0
same,absorbance (ELISA) (absorbance at 412 nm),[5],< 0
same,absorbance (ELISA) (absorbance at 412 nm),[6],0.001
same,absorbance (ELISA) (absorbance at 412 nm),[7],0.01
same,absorbance (ELISA) (absorbance at 412 nm),[8],< 0
same,absorbance (ELISA) (absorbance at 412 nm),[9],0
same,absorbance (ELISA) (absorbance at 412 nm),[10],0.003
same,absorbance (ELISA) (absorbance at 412 nm),[11],0
same,absorbance (ELISA) (absorbance at 412 nm),[12],0.002
same,absorbance (ELISA) (absorbance at 412 nm),[13],0.003
